Laboratory results reported in patent EP0485563B1, “POLYETHER-SUBSTITUTED TUMOR AGENTS” (Deutsches Krebsforschungszentrum Stiftung des öffentlichen …, priority 1990, dated 1991).

Experiments:
[1] = test system: experimentelle Tumoren und Xenotransplantate, human; experiment: Accumulation (concentration) of radiolabelled agents in experimental tumours and human xenografts; assay type: in vivo, Ratte; Nacktmaus; conditions: 300 µC = 11,1 MBq administered; 1a and 1c in all tumours/xenografts of the 2nd table, compound of Beispiel 2 only in Walker Carcinosarcom, Osteosarcom, Ovarialcarcinom (O-342)
Source text: Schließlich wurden für CT-Untersuchungen die folgenden Verbindungen gemäß Beispiel 2 hergestellt: • 4a) Tri-jod-phenol-CMPEG • 4b) Tri-jod-benzoesäure-AMPEG • 4c) Iodoxaminsäure-(AMPEG)₂ Die Anreicherung (Konzentrierung) dieser Mittel wurde an folgenden experimentellen Tumoren und an folgenden Tiermodellen geprüft:
Alle diese experimentellen Tumoren und Xenotransplantate wurden mit den Verbindungen a und c gemäß Beispiel 1 (also 1a und 1c) und drei davon, nämlich das Walker Carcinosarcom, das Osteosarcom und das Ovarialcarcinom (O-342) auch mit dem Diphosphonat gemäß Beispiel 2 untersucht.
(§1) Bei allen diesen Anwendungsversuchen wurden immer 300 µC = 11,1 MBq verabreicht. ES zeigten sich mit den eingesetzten Mitteln, nämlich 1a und 1c und die Verbindung aus Beispiel 2 eine Konzentration von mindestens 30 % des Mittels an der gewünschten Stelle, also am Tumor. Die beigefügte Fig. 4 zeigt das Bild einer BDIX-Rattemit Ovarialcarcinom 42 h nach Injektion, die mit ¹³¹J-HOPAD-CMPEG, also ¹³¹J-Hydroxyphenyl-1-aminomethan-1,1-diphosphonat- Cyanurchlorid aktiviertes Polyethylenglykol (n = ca. 100 bis 110) in einer Menge von 300 µC behandelt war. Das Bild zeigt, daß ganz unten, im Tumor ca. 30 +/- 2 % des Mittels konzentriert sind, während in der Mitte die Leber ca. 10 % zeigt und die Schilddrüse, die oberhalb der Leber sichtbar ist, weit weniger als 2 % des Mittels aufgenommen hat. Diese %-Angaben beziehen sich auf die Gesamtmenge an die mit radiojadmarkierten Mittel im Gesamtkörper der Ratte.

Ovarialcarcinom = experiment: Whole-body distribution of radioiodine-labelled agent in tumour-bearing rat (Fig. 4, Fig. 5); assay type: in vivo, BD IX Ratte
Description: as §1
Die beigefügte Fig. 5 zeigt die Messung einer mit ¹³¹I TOP-(CMPEG)4 behandelten BD IX Ratte (auch hier Ovarialcarcinom). Es zeigt sich ein ähnliches Ergebnis wie das von Fig. 4.
Von der gesamten Körperaktivität an radioaktivem Jod finden sich nach 150 h etwa 23 % im Tumor, etwa 12 % in der Leber, etwa 5 % im Blut und etwa 3 - 4 % jeweils in den Muskeln und in der Schilddrüse. Der Rest ist natürlich, wie auch bei der Aufnahme von Fig 4, über den restlichen Körper verteilt.

[2] = Photodynamic activity of the photosensitiser
[3] = BDIX rat with Ovarialcarcinom, 42 h after injection, 300 µC, % of total labelled agent in whole body
[4] = BD IX rat, Ovarialcarcinom, after 150 h, % of total body activity of radioactive iodine

Question: With “¹³¹-I-Hydroxyphenylaminomethandiphosphonat- (CMPEG)₂ [Verbindung aus Beispiel 2]” as the substance, how does the “Konzentration des Mittels an der gewünschten Stelle, also am Tumor” value [1] read?
Answer: ≥ 30%

Question: And the Leber (Ovarialcarcinom; [3])?
Answer: ca. 10%

Question: And the Schilddrüse (Ovarialcarcinom; [3])?
Answer: < 2%

Question: And the “im Tumor konzentriert” value (Ovarialcarcinom; [3])?
Answer: ca. 30 +/- 2%

Question: Which “Konzentration des Mittels an der gewünschten Stelle, also am Tumor” value [1] does the source give for “¹³¹I-Tetra(hydroxyphenyl)-porphin-(CMPEG)₄ [1a]” here?
Answer: ≥ 30%

Question: What about the “im Blut” value (Ovarialcarcinom; [4]) of the same substance?
Answer: ~5%

Question: And the “im Tumor” value (Ovarialcarcinom; [4])?
Answer: ~23%

Question: And the “in den Muskeln” value (Ovarialcarcinom; [4])?
Answer: 3 - 4%

Question: And the “in der Leber” value (Ovarialcarcinom; [4])?
Answer: ~12%

Question: And the “in der Schilddrüse” value (Ovarialcarcinom; [4])?
Answer: 3 - 4%

Question: Which “Konzentration des Mittels an der gewünschten Stelle, also am Tumor” value [1] does the source give for “¹¹¹-In-Tetra-(hydroxyphenoxy)-phthalocyanin-(CMPEG)₄ [1c]” here?
Answer: ≥ 30%

Question: With “Tetra-(4 Amino-phenoxy)-phthalocyanin -CMPEG [TAPPC-CMPEG]” as the substance, how does the “"bleaching"” value [2] read?
Answer: kaum "bleaching" festzustellen

Question: And the “fotodynamische Aktivität” value [2]?
Answer: sehr hohe fotodynamische Aktivität bis über 720 nm
